{"source": "patent US6887705B1", "about": "“Tyrosine phosphorylated cleavage furrow-associated proteins (PSTPIPs)” (Genentech, Inc., priority 1997, dated 2005)", "molecules": {"B1": {"name": "I122MD: PST PIP clustered alanine substitution starting at I122 (protein)", "chain": "MMAQLQFRDAFWCRDFTAHTGYEVLLQRLLDGRKMCKDVEELLRQRAQAEERYGKELVQIARKAGGQTEMNSLRTSFDSLKQQTENVGSAHIQLALALREELRSLEEFRERQKEQRKKYEAAAARVQKSKLSLYKKTMESKKAYDQKCRDADDAEQAFERVSANGHQKQVEKSQNKAKQCKESATEAERVYRQNIEQLERARTEWEQEHRTTCEAFQLQEFDRLTILRNALWVHCNQLSMQCVKDDELYEEVRLTLEGCDVEGDINGFIQSKSTGREPPAPVPYQNYYDREVTPLIGSPSIQPSCGVIKRFSGLLHGSPKTTPSAPAASTETLTPTPERNELVYASIEVQATQGNLNSSAQDYRALYDYTAQNSDELDISAGDILAVILEGEDGWWTVERNGQRGFVPGSYLEKLDYKDDDDK"}, "B2": {"name": "L133YK: PST PIP clustered alanine substitution starting at L133 (protein)", "chain": "B1 chain with A122I, A123M, A124D, L133A, Y134A, K135A"}, "B3": {"name": "D145QK: PST PIP clustered alanine substitution starting at D145 (protein)", "chain": "B1 chain with A122I, A123M, A124D, D145A, Q146A, K147A"}, "B4": {"name": "E159RV: PST PIP clustered alanine substitution starting at E159 (protein)", "chain": "B1 chain with A122I, A123M, A124D, E159A, R160A, V161A"}, "B5": {"name": "Q169VE: PST PIP clustered alanine substitution starting at Q169 (protein)", "chain": "B1 chain with A122I, A123M, A124D, Q169A, V170A, E171A"}, "B6": {"name": "tryptophan at position 205: PST PIP with tryptophan 205 mutated to alanine (protein)", "chain": "MMAQLQFRDAFWCRDFTAHTGYEVLLQRLLDGRKMCKDVEELLRQRAQAEERYGKELVQIARKAGGQTEMNSLRTSFDSLKQQTENVGSAHIQLALALREELRSLEEFRERQKEQRKKYEAIMDRVQKSKLSLYKKTMESKKAYDQKCRDADDAEQAFERVSANGHQKQVEKSQNKAKQCKESATEAERVYRQNIEQLERARTEAEQEHRTTCEAFQLQEFDRLTILRNALWVHCNQLSMQCVKDDELYEEVRLTLEGCDVEGDINGFIQSKSTGREPPAPVPYQNYYDREVTPLIGSPSIQPSCGVIKRFSGLLHGSPKTTPSAPAASTETLTPTPERNELVYASIEVQATQGNLNSSAQDYRALYDYTAQNSDELDISAGDILAVILEGEDGWWTVERNGQRGFVPGSYLEKL", "modifications": "Mus Musculus", "notes": "PST PIP with tryptophan 205 mutated to alanine"}, "B7": {"name": "F221: PST PIP with phenylalanine 221 mutated to alanine (protein)", "chain": "B1 chain with A122I, A123M, A124D, F221A"}, "B8": {"name": "L224: PST PIP with leucine 224 mutated to alanine (protein)", "chain": "B1 chain with A122I, A123M, A124D, L224A"}, "B9": {"name": "D38VE: PST PIP clustered alanine substitution starting at D38 (protein)", "chain": "B1 chain with D38A, V39A, E40A, A122I, A123M, A124D"}, "B10": {"name": "E50ER: PST PIP clustered alanine substitution starting at E50 (protein)", "chain": "B1 chain with E50A, E51A, R52A, A122I, A123M, A124D"}, "B11": {"name": "R62K: PST PIP clustered alanine substitution starting at R62 (protein)", "chain": "B1 chain with R62A, K63A, A122I, A123M, A124D"}, "B12": {"name": "N86VG: PST PIP clustered alanine substitution starting at N86 (protein)", "chain": "B1 chain with N86A, V87A, G88A, A122I, A123M, A124D"}, "B13": {"name": "R99EE: PST PIP clustered alanine substitution starting at R99 (protein)", "chain": "B1 chain with R99A, E100A, E101A, A122I, A123M, A124D"}, "B14": {"name": "E110RQ: PST PIP clustered alanine substitution starting at E110 (protein)", "chain": "B1 chain with E110A, R111A, Q112A, A122I, A123M, A124D"}}, "note": "Where a chain is given by its changes, count along the chain named. Names may count otherwise.", "data": [{"target": "T1, PTP HSCF (Mus musculus, UniProt Q61152)", "T1 construct": "the PST (and C-terminal homolog) of PTP HSCF (amino acids 304-453); made in house; host or cells: E. coli DH5-alpha", "T1 sequence (Q61152 304-453)": "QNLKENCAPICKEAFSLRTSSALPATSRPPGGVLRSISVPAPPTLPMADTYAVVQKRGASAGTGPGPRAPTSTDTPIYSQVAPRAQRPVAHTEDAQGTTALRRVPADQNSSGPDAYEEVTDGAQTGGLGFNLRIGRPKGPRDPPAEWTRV", "test": "In vitro GST pull-down binding of PST PIP forms to PTP HSCF", "conditions": "in vitro", "procedure": "(§1) The binding was carried out according to the method of Wong and Johnson (Wong et al., J. Biol. Chem. 271(35):20981-20984 (1996)). Briefly, 1 μg of plasmid with either the PSTPIP protein or PTP HSCF under the control of the Sp6 promoter was in vitro transcribed/translated using the Promega™ TnT Rabbit Reticulocyte™ system. Samples were diluted in 50 mM HEPES, pH 7.2, 1% triton X 100, 10% glycerol, 100 mM NaCl, 5 mM EDTA and 2 μg/ml each of leupeptin, pepstatin, aprotinin, and PMSF. […] This was reacted for 1 hour at 4° C. and then the resin washed 6 times in HEPES/Triton binding buffer before SDS gel electrophoresis. The peptides were synthesized on an automated Milligen 9050 Peptide Synthesizer using standard solid phase chemistry with FMOC protected amino acids on a p-alkoxybenzyl alcohol resin. Dried peptides were re-suspended in the HEPES/Triton Binding buffer at a concentration of 10 mg/ml. Peptide inhibition was performed by adding the peptide first to the in vitro translation product and then the GST-fusion followed by the GSH-Sepharose. The binding/washing steps were as previously described. The peptides synthesized and the PTPs they were derived from were: • PXXP-HSCF: 432[…]451 (PTP HSCF) (SEQ ID NO:20), • PXXP-PEP: 782GFGNRFSKPKGPRNPPSAW800 (PTP PEP) (SEQ ID NO:21), • PXXP-PEST: 761[…]780 (PTP PEST) SEQ ID NO:22), • PXXP-CONTROL: 334[…]353 (PTP HSCF) (SEQ ID NO:23).\n(§2) In vitro binding analyses between various PTP HSCF and PST PIP constructs were performed as previously described (Spencer et al, (1997), supra). Briefly, plasmids were transcribed and translated in vitro using the TnT Rabbit Reticulocyte Lysate System (Promega). Samples were diluted in 50 mM HEPES, pH 7.2, 1% triton X-100, 10% glycerol, 100 mM NaCl, and 2 μg/ml each of leupeptin, pepstatin, aprotinin and PMSF (lysis buffer). Samples were than reacted with GST fusion proteins at various concentrations, and the bound proteins were centrifuged using glutathione-sepharose beads and analyzed on SDS polyacrylamide gels. C-terminally-derived peptide inhibition studies were performed by incubating the GST fusion protein binding reactions in the presence of 10 μg/ml of the indicated peptides. Peptides were produced by FMOC-protected amino acids as previously described (Spencer et al, (1997), supra). In vivo interactions between various forms of PTP HSCF and PST PIP were also performed as previously described (Spencer et al, (1997), supra). Briefly, COS cells were transfected with various constructs, and after 48 hours, lysates were prepared and immunoprecipitated with antibodies to either the FLAG epitope contained at the C-terminus of PST PIP or an HA epitope contained at the N-terminus of PTP HSCF. The resultant blots were probed with anti-FLAG to detect PST PIP, anti-HA to detect PTP HSCF or anti-phosphotyrosine to detect levels of this modified amino acid in each protein.", "values": [{"molecule": "amino acids 1-264 of the coiled coil domain: form of PST PIP containing amino acids 1-264", "binding of in vitro translated PST PIP forms to GST fusion of C-terminal 149 amino acids of PTP HSCF": "binding of PTP HSCF could be obtained"}, {"molecule": "B1", "binding of in vitro translated PST PIP forms to GST fusion of C-terminal 149 amino acids of PTP HSCF": "either no or a minor change in the binding activity"}, {"molecule": "B2", "binding of in vitro translated PST PIP forms to GST fusion of C-terminal 149 amino acids of PTP HSCF": "either no or a minor change in the binding activity"}, {"molecule": "B3", "binding of in vitro translated PST PIP forms to GST fusion of C-terminal 149 amino acids of PTP HSCF": "either no or a minor change in the binding activity"}, {"molecule": "B4", "binding of in vitro translated PST PIP forms to GST fusion of C-terminal 149 amino acids of PTP HSCF": "either no or a minor change in the binding activity"}, {"molecule": "B5", "binding of in vitro translated PST PIP forms to GST fusion of C-terminal 149 amino acids of PTP HSCF": "either no or a minor change in the binding activity"}, {"molecule": "B6", "binding of in vitro translated PST PIP forms to GST fusion of C-terminal 149 amino acids of PTP HSCF": "no effect on PTP HSCF binding was observed"}, {"molecule": "B7", "binding of in vitro translated PST PIP forms to GST fusion of C-terminal 149 amino acids of PTP HSCF": "no effect on PTP HSCF binding was observed"}, {"molecule": "B8", "binding of in vitro translated PST PIP forms to GST fusion of C-terminal 149 amino acids of PTP HSCF": "no effect on PTP HSCF binding was observed"}, {"molecule": "B9", "binding of in vitro translated PST PIP forms to GST fusion of C-terminal 149 amino acids of PTP HSCF": "either no or a minor change in the binding activity"}, {"molecule": "B10", "binding of in vitro translated PST PIP forms to GST fusion of C-terminal 149 amino acids of PTP HSCF": "either no or a minor change in the binding activity"}, {"molecule": "B11", "binding of in vitro translated PST PIP forms to GST fusion of C-terminal 149 amino acids of PTP HSCF": "either no or a minor change in the binding activity"}, {"molecule": "B12", "binding of in vitro translated PST PIP forms to GST fusion of C-terminal 149 amino acids of PTP HSCF": "either no or a minor change in the binding activity"}, {"molecule": "B13", "binding of in vitro translated PST PIP forms to GST fusion of C-terminal 149 amino acids of PTP HSCF": "either no or a minor change in the binding activity"}, {"molecule": "B14", "binding of in vitro translated PST PIP forms to GST fusion of C-terminal 149 amino acids of PTP HSCF": "either no or a minor change in the binding activity"}]}, {"target": "T1, PTP HSCF", "test": "In vitro GST pull-down binding of PST PIP forms to PTP HSCF", "conditions": "~1 microgram per ml GST fusion protein", "procedure": "as §1, §2", "values": [{"molecule": "SH3 region: GST fusion containing the SH3 domain of PSTPIP", "precipitation of in vitro translated PTP HSCF by GST fusions of PSTPIP or its domains": "not the SH3 region"}, {"molecule": "coiled coil domain: GST fusion containing the coiled coil domain of PSTPIP", "precipitation of in vitro translated PTP HSCF by GST fusions of PSTPIP or its domains": "mediated by the coiled coil domain"}]}]}
